Results reported in patent US20020045591A1, “Methods and therapeutic compositions for treating cancer” (priority 1998, published 2002).

Tests used:
SW480 cells = experiment: Immunofluorescence localization in SW480 cells (Example 1); format: cell-based, human; conditions: transfected SW480 cells, FIG. 6B
Description: Immunofluorescence microscopy: Cells cultured on glass coverslips were fixed with 3% paraformaldehyde in phosphate-buffered saline (PBS) and permeabilized with 0.5% Triton X-100. CHO cells were immunofluorescently labeled as described (Levenberg S. et al. (1998) Long-range and selective autoregulation of cell-cell and cell-matrix adhesions by cadherin or integrin ligands. J. Cell Sci. 111:347-357). Nuclei were visualized using DAPI and the fluorescence was examined using a Zeiss Axiophot microscope and a x100/1.3 Planapochromat objective.

[1] = system: β-catenin-mediated transactivation; experiment: TOPFLASH luciferase transactivation in SW480 cells (Example 1); format: cell-based, human; conditions: SW480 cells transfected with TOPFLASH and N-cadherin derivative, FIG. 6A
Procedure: Cell culture and transfections: CHO and SW480 human colon carcinoma cells were cultured in Dulbecco's modified Eagle's medium containing 10% fetal calf serum in an 8% CO2 incubator at 37° C. Transfections were performed using Lipofectamine (Gibco, BRL, USA) according to the manufacturer's instructions. Stably transfected CHO clones were generated by co-transfection with a plasmid encoding the puromycin resistance gene. Two days after transfection, cells were replated in the presence of 10 μg/ml puromycin (Sigma, Holon, Israel). Stable clones were isolated 2 weeks later and tested for the expression of the transgene by Western blot analysis.
Transactivation assays: CHO cells were transfected with TOPFLASH or FOPFLASH vectors (van de Wetering et al., 1997, ibid) and with pCDNA3 coding for β-galactosidase to normalize for transfection efficiency. The transfection mixture also contained either β-catenin, LEF-1 or cadherin derivatives in different combinations, as indicated. SW480 cells were transfected with TOPFLASH and cadherin derivatives. […] The reactions were stopped with 1 M Na2CO3 and the absorbance at 420 nm was determined. […] The luciferase reaction was monitored by a TD-20e luminometer (Turner, USA) and normalized for the β-galactosidase activity. […]

β-catenin = molecular target: T1, β-catenin (Cricetulus griseus, UniProt G3H996); experiment: Co-immunoprecipitation of cadherin derivatives with β-catenin in CHO cells; format: binding; conditions: stably transfected CHO cells, FIG. 2B
T1 construct: resulting from the stabilization of the endogenous β-catenin by the transfected cadherin derivatives; endogenous in cells; host or cells: CHO cells, stably or transiently transfected with cadherin derivatives only
T1 sequence (G3H996 1-781): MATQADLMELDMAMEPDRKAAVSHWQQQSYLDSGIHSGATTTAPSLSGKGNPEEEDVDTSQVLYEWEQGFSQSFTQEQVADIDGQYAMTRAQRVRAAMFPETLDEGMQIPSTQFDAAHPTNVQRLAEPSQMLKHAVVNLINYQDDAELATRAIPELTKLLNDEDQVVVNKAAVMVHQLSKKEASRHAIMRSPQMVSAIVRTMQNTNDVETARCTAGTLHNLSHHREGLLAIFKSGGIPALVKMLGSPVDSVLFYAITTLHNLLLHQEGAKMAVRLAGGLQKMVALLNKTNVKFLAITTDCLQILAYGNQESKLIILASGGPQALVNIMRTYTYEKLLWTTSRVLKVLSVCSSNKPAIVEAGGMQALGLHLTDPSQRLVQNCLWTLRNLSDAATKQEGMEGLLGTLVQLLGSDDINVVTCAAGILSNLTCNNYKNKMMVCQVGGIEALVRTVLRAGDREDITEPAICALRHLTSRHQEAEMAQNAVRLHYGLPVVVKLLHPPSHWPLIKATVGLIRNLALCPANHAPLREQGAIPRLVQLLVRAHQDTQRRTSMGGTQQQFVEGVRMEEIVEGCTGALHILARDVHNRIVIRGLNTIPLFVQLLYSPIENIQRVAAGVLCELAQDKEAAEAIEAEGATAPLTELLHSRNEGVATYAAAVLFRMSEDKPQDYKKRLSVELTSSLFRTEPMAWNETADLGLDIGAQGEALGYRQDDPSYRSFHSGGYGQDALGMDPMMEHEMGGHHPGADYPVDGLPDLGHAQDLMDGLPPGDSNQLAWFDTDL
Description: Immunoblotting and immunoprecipitation: The following antibodies were used: polyclonal pan-cadherin or monoclonal anti cadherin (CH-19) and polyclonal anti β-catenin antibodies were from Sigma (Holon, Israel). Monoclonal anti β-catenin, 5H10 (from M. Wheelock), anti IL2Rα (from UBI), anti flag (M2, from IBI), anti HA (clone 12CA5, from Boehringer Mannheim, Germany), anti GFP (polyclonal, from Clontech, Palo Alto, Calif.), anti LEF-1 (polyclonal, kindly provided by Dr. R. Grosschedl). Secondary antibodies for Western blotting were goat anti rabbit or anti mouse conjugated to HRP (Amersham, Buckinghampshire, UK), and for immunofluorescence analysis the secondary antibodies were FITC-goat anti mouse (Cappel, USA) or rhodamine-anti rabbit antibodies (from Jackson Immuno-Research, West Grove, Pa.). Cells were harvested in Laemmli's sample buffer and equal amounts of total cell protein from the different clones, or from transient transfections, were separated by SDS-PAGE, electrotransferred to nitrocellulose and incubated with the different antibodies. For immunoprecipitation, cells were harvested in IP buffer (20 mM Tris pH 8.0, 1% Triton X-100, 140 mM NaCl, 10% glycerol, 1 mM EGTA, 1.5 mM MgCl2, 1 mM DTT, 1 mM sodium vanadate, and 50 μg/ml PMSF). […]

B1: N-cadherin tail: Cytoplasmic domain of chicken N-cadherin tagged with a Flag epitope (protein)
chain: MKRRDKERQAKQLLIDPEDDVRDNILKYDEEGGGEEDQDYDLSQLQQPDTVEPDAIKPVGIRRLDERPIHAEPQYPVRSAAPHPGDIGDFINEGLKAADNDPTAPPYDSLLVFDYEGSGSTAGSLSSLNSSSSGGEQDYDYLNDWGPRFKKLADMYGGGDD
modifications: left off: small tags and cut ends
subcellular localization of β-catenin (SW480 cells): colocalized with β-catenin in the nucleus
inhibition of TOPFLASH reporter (luciferase) activity [1]: more than 85%
interaction with β-catenin by co-immunoprecipitation (β-catenin): direct interaction
